Source: patent EP4585616A1, “ANTIBODY CAPABLE OF SPECIFICALLY BINDING TO ROR1, […] THEREOF, AND PREPARATION METHOD THEREFOR AND USE THEREOF” (Hefei Institutes of Physical Science, Chinese Academy of …, priority 2022, dated 2024)
Substitutions are numbered along the chain they refer to.

B1: mAb001c_v1 (antibody, IgG1, V domains shown)
VH: EVRLQQSGPVLVKPGASVKMSCKASGYTFTDYNLHWVKQSHRQSLEWIGYINPNHDATSYNQKFQGKATLTVDRSSSTAYMEFRSLTSEDSAVYYCARRVRTGTGLDDWGQGTTLTVSS
VL: DVLMTQSPLSLPVSLGDQASISCRSSHNIVHTNANTYLEWYLQKPGQSPKLLIYKVSNRFSGVPDRFSGSGSGTYFTLTISRVEAEDLGVYYCFQGSRFPYTFGGGTKLEIK
notes: Chimeric mutant in hIgG1,k vector; the entries already hold the site-directed changes; also called human-mouse chimeric antibody mutant of mAb001c; site-directed mutant of mAb001c
B2: Hu005-46 (antibody, V domains shown)
VH: EVQLVESGGGLVKPGGSLRLSCAASGFTFNSYAMSWVRQTPGKRLEWVATISDAGSYTYYPDNEKGRFTISRDNAKNSLYLQMNSLRAEDTAIYYCVRGGYYYNLYAMDYWGQGTLVTVSS
VL: DIVLTQSPDSLAVSLGERATINCKASQSVSFPGTSLMHWYQQKPGQQPKLLIYRASNLEAGVPDRFSGSGSRTDFTLTISSLQAEDVAVYYCQQSREYPWTFGGGTKVEIK
notes: Humanized
B3: Hu005-46-MMAE (antibody, human IgG1, DAR about 4.07, V domains shown)
VH: B2 VH
VL: B2 VL
modifications: vcMMAE on cysteines after TCEP reduction, positions not given
notes: Antibody-drug conjugate of Hu005-46 (human IgG1, Kappa) with vcMMAE
B4: Hu005-44-MMAE (antibody, human IgG1, DAR about 4.12, V domains shown)
VH: B2 VH with R44G
VL: B2 VL
modifications: vcMMAE on cysteines after TCEP reduction, positions not given
notes: Antibody-drug conjugate of Hu005-44 (human IgG1, Kappa) with vcMMAE
B5: Hu005-42 (antibody, V domains shown)
VH: B2 VH with G42E
VL: B2 VL
notes: Humanized
B6: Hu005-45 (antibody, V domains shown)
VH: B2 VH with G42E, R44G
VL: B2 VL
notes: Humanized
B7: mAb005c_v1 (antibody, IgG1, V domains shown)
VH: B2 VH with R19K, G42E, S78N, N84S, S85H, R87K, A88S, L116S
VL: DIVLTQSPASLAVSLGQRAIISCKASQSVSFPGTSLMHWYQQKPGQQPKLLIYRASNLEAGVPTRFSGSGSRTDFTLNIHPVEEDDTATYYCQQSREYPWTFGGGTQLEIK
notes: Chimeric mutant in hIgG1,k vector; the VH entry already holds the site-directed change; also called human-mouse chimeric antibody mutant of mAb005c; site-directed mutant of mAb005c
B8: Hu005-43 (antibody, V domains shown)
VH: B2 VH with R44G, S78N
VL: B2 VL
notes: Humanized
B9: Hu005-35 (antibody, V domains shown)
VH: B2 VH with G42E, S78N
VL: B2 VL
notes: Humanized
B10: Hu005-41 (antibody, V domains shown)
VH: B2 VH with S78N
VL: B2 VL
notes: Humanized
B11: Hu005-44 (antibody, V domains shown)
VH: B2 VH with R44G
VL: B2 VL
notes: Humanized
B12: Hu005-40 (antibody, V domains shown)
VH: B2 VH with G42E, R44G, S78N
VL: B2 VL
notes: Humanized
B13: Hu001-05 (antibody, V domains shown)
VH: QVQLVQSGAEVKKPGASVKVSCKASGYTFTDYNLHWVRQAPGQGLEWMGYINPNHDATSYNQKFQGKVTMTVDTSTSTVYMELSSLRSEDTAVYYCARRVRTGTGLDDWGQGTTVTVSS
VL: DVVMTQSPLSLPVTLGQPASISCRSSHNIVHTNANTYLEWYQQRPGQSPRLLIYKVSNRFSGVPDRFSGSGSGTDFTLKISRVEAEDVGVYYCFQGSRFPYTFGGGTKVEIK
notes: Humanized; also called Hu001-5
B14: Hu001-08 (antibody, V domains shown)
VH: B13 VH with R38K, M48I
VL: B13 VL
notes: Humanized; also called Hu001-8
B15: Hu001-14 (antibody, V domains shown)
VH: B13 VH with R38K, M48I, V68A, M70L, V79A, R87T
VL: B13 VL
notes: Humanized
B16: Hu001-03 (antibody, V domains shown)
VH: B13 VH with K67R, V72R
VL: B13 VL with R50K
notes: Humanized; also called Hu001-3
B17: Hu001-3-MMAE (antibody, human IgG1, DAR about 4.15, V domains shown)
VH: B13 VH with K67R, V72R
VL: B13 VL with R50K
modifications: vcMMAE on cysteines after TCEP reduction, positions not given
notes: Antibody-drug conjugate of Hu001-3 (human IgG1, Kappa) with vcMMAE
B18: Hu001-2-MMAE (antibody, human IgG1, DAR about 4.15, V domains shown)
VH: B13 VH with K67R, V72R
VL: B13 VL
modifications: vcMMAE on cysteines after TCEP reduction, positions not given
notes: Antibody-drug conjugate of Hu001-2 (human IgG1, Kappa) with vcMMAE
B19: Hu001-15 (antibody, V domains shown)
VH: B13 VH with R38K, M48I, V68A, M70L, V79A, R87T
VL: B13 VL with R50K
notes: Humanized
B20: Hu001-11 (antibody, V domains shown)
VH: B13 VH with R38K, M48I, V68A, M70L
VL: B13 VL
notes: Humanized
B21: Hu001-06 (antibody, V domains shown)
VH: B13 VH
VL: B13 VL with R50K
notes: Humanized; also called Hu001-6
B22: Hu001-12 (antibody, V domains shown)
VH: B13 VH with R38K, M48I, V68A, M70L
VL: B13 VL with R50K
notes: Humanized
B23: Hu001-02 (antibody, V domains shown)
VH: B13 VH with K67R, V72R
VL: B13 VL
notes: Humanized; also called Hu001-2
B24: mAb001 (antibody, IgG2b, V domains shown)
VH: B1 VH with A57G
VL: B1 VL with A34G
notes: Mouse monoclonal antibody, IgG2b/k
B25: mAb006 (antibody, IgG2b, V domains shown)
VH: EVQLQQSGPELVKPGASLKMSCKASGYTFPDYNIHWVKQSHGKSLEWIGYINPNNGGTTYNQKFKGKATLTVSKSSSTAYMELRSLTSEDSAVYSCARRGYGSSYAMDYWAQGTSVTVSS
VL: B1 VL with N28I, A34G, Y75D, T79K, F99V
notes: as for B24
B26: mAb007 (antibody, IgG2b, V domains shown)
VH: B25 VH with L18V, P30T, I34M, T59S, S73N, E89D, S95Y, S104G, A111G
VL: B1 VL with S7T, H27Q, N28S, A34G, K44N, S57F, Y75D, T79K, R98L
notes: as for B24
B27: mAb009 (antibody, IgG2b, V domains shown)
VH: B25 VH with M20L, G57N, T59N, K65E, E89D, Y109F, A111G
VL: B1 VL with S7T, D17N, N28I, A34G, Y75D, T79K, F99V
notes: as for B24
B28: mAb008 (antibody, IgG2b, V domains shown)
VH: B25 VH with L18V, G26E, P30T, I34M, S73N, E89D, S95Y, S104G, A111G, T114A
VL: DVLLTQTPLSLPVSLGDRASISCTSSQSIVHTNGNTYLEWYLQNPGQSPKLLIYKVSNRFSGVPDRFSGSGSGTDFTLKISRVEAEDLGVYYCFQGSLFPYTFGGGTKLEIK
notes: as for B24
B29: mAb004 (antibody, IgG2b, V domains shown)
VH: EVQLVESGGGLVQPKGSLKLSCAASGFTFNTYAMHWVRQAPGKGLEWVARIRSKSSNFATYYADSVRDRFTISRDDSQSMLYLQMNNLKTEDTAMYYCVRGYGPSYFSLDYWGQGTSVTVSS
VL: DVVMTQTPLSLPVSLGDQASISCRSSQSLVHSNGNTYLHWYLQKPGQSPKLLIYKVSNRFSGVPDRFSGSGSGTDFTLKINRVEAEDLGVYFCSQSTHAIYTFGGGTKLEIK
notes: as for B24
B30: mAb005 (antibody, IgG2b, V domains shown)
VH: B2 VH with R19K, G42E, A54G, S78N, N84S, S85H, R87K, A88S, L116S
VL: B7 VL
notes: as for B24
B31: mAb003 (antibody, IgG2c, V domains shown)
VH: EVQLVESGGGLVKPGGSLKLSCAASGFTFSSYAMSWVRQTPEKRLEWVATISDGGSYTYYPDSVKGRFTISRDNAKNNLYLQMSHLKSEDTDMYYCVRGGYYYNLYAMDYWGQGTSVTVSS
VL: B7 VL with P32A, T73A, T87A, R96G, Q107K
notes: Mouse monoclonal antibody, IgG2c/k

target: T1, Extracellular domain of human ROR1 protein (ROR1-ECD) (human, UniProt Q01973 30-403); test: ELISA, plate-coated ROR1-ECD
T1 construct: Expressed in HEK293T cells; also called human ROR1-ECD; purified human ROR1 protein extracellular segment
T1 sequence (Q01973 other isoform, or with tags, fused parts or gaps): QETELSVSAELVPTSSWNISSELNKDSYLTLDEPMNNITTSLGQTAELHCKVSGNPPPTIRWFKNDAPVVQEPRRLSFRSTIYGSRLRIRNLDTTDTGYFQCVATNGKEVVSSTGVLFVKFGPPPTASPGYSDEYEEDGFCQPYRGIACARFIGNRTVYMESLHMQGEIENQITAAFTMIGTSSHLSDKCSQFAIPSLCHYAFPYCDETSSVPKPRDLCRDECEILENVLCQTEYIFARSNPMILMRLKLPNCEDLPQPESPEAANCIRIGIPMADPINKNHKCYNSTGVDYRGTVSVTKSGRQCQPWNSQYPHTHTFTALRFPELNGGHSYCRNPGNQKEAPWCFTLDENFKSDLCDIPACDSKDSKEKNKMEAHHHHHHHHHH

Binder	EC50	binding result
B1	28 pM	–
B2	–	binds
B3	–	binds
B4	–	binds
B5	–	binds
B6	–	binds
B7	46 pM	–
B8	–	binds
B9	–	binds
B10	–	binds
B11	–	binds
B12	–	binds
B13	–	binds
B14	–	binds
B15	–	binds
B16	–	binds
B17	–	binds
B18	–	binds
B19	–	binds
B20	–	binds
B21	–	binds
B22	–	binds
B23	–	binds

target: T1, Extracellular domain of human ROR1 …; test: ELISA, purified ROR1-ECD

Binder	EC50
B24	49 pM
B25	59 pM
B26	66 pM
B27	62 pM
B28	53 pM
B29	38 pM
B30	43 pM
B31	23 pM

target: T2, human ROR1 on the surface of tumor cells (human, UniProt Q01973 30-937); test: FACS, MDA-MB-231 cells
T2 construct: whole, on cells; also called ROR1 on the cell surface; tumor cell ROR1
T2 sequence (Q01973 30-937): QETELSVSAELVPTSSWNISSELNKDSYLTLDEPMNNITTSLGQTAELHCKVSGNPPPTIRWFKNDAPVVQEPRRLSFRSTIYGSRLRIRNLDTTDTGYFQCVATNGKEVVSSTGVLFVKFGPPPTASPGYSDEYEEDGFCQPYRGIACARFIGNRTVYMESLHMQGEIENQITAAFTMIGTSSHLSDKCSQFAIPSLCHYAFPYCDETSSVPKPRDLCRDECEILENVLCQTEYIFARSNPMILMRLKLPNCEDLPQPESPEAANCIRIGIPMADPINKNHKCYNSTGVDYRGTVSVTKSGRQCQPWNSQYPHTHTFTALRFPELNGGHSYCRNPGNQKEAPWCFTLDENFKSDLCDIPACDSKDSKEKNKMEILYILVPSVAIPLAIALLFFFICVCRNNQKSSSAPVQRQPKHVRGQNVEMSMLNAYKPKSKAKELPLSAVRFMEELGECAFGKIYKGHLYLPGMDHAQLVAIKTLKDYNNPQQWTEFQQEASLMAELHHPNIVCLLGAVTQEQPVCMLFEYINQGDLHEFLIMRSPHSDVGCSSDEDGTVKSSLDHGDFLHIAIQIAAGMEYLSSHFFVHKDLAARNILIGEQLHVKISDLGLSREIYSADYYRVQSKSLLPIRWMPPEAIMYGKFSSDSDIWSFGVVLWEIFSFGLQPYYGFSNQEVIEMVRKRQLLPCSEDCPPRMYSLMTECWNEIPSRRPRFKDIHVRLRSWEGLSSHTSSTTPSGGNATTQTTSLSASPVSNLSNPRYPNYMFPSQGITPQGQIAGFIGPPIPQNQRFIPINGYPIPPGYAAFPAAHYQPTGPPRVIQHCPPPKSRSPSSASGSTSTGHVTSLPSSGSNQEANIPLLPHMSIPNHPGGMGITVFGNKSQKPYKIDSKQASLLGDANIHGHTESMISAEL

Binder	EC50	binding result
B24	73 pM	–
B25	190 pM	–
B26	150 pM	–
B27	160 pM	–
B28	110 pM	–
B1	73 pM	–
B29	150 pM	–
B2	–	binds
B3	–	binds
B30	160 pM	–
B4	–	binds
B5	–	binds
B6	–	binds
B7	67 pM	–
B8	–	binds
B9	–	binds

Binder	EC50	binding result
B10	–	binds
B11	–	binds
B31	450 pM	–
B12	–	binds
B13	–	binds
B14	–	binds
B15	–	binds
B16	–	binds
B17	–	binds
B18	–	binds
B19	–	binds
B20	–	binds
B21	–	binds
B22	–	binds
B23	–	binds
